The experiment addresses T1, extracellular domain of human BCMA (Homo sapiens, UniProt Q02223).
T1 construct: B cell maturation antigen (BCMA), human, extracellular domain; PDB 4ZFO chain F was only the search model for molecular replacement; For the Octet experiments the methods say that antigens were either expressed in-house (ECD with His-tag) or commercially available
Kind of experiment: crystal structure; BCMA and UniAb VH mixed at a 1:2 molar ratio for 20 min at 4°C, complex isolated by SEC (20 mM PBS, 250 mM NaCl); sitting drop vapor diffusion, 0.2 M sodium malonate pH 4.0, 20% PEG 3350; 2.6 Å; two complexes in the asymmetric unit. The following applies: both partners purified. On the technique in general: Size exclusion chromatography separates by hydrodynamic size, large species first.

Data on one molecule can be found in PMC6330309, “Multispecific Antibody Development Platform Based on Human Heavy Chain Antibodies” (Frontiers in Immunology, 2018).

T1 sequence (Q02223 1-54): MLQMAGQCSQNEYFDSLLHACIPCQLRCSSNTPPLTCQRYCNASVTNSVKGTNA

B1: anti-BCMA UniAb VH (IgHV3-23) (VHH)
VHH: EVQLVESGGGLVQPGGSLRLSCAASGFTVSSYGMSWVRQAPGKGPEWVSGIRGSDGSTYYADSVKGRFTISRDNSKNTLYLQMNSLRAEDTAVYYCAKQGENDGPFDHRGQGTLVTVS
notes: fully human VH single domain (IgHV3-23) from a UniRat heavy chain-only antibody, with R109 in framework 4 (W101R, Kabat); Human VH used as a single domain, no light chain and no Fc; also called UniAb VH (VH3-23)
Consider B1, for which the binding result was “binds”.
